One assay deals with HLA-A*0201 molecule (Homo sapiens, UniProt P04439, D140Y/D185E/D98H/E176V/E277Q/G131W/G231S/I119V/I121R/I166T/I218V/L300P/L318F/N151K/N90K/P208A/P217A/Q86G/Q94H/R138H/R169H/T345S). The following applies: Wu et al. 2011; cited from earlier work.
The target of the next assay is HLA-A*02:01 (Homo sapiens, UniProt P04439, D140Y/D185E/D98H/E176V/E277Q/G131W/G231S/I119V/I121R/I166T/I218V/L300P/L318F/N151K/N90K/P208A/P217A/Q86G/Q94H/R138H/R169H/T345S). Nature of the assay: Binding to HLA-A*02:01 (additional data, Example 6).
Assay [1] concerns HLA-A*0201-positive PBMCs. The following applies: cited from earlier work.
Assay [2] relates to T-cells of healthy donors. Nature of the assay: Immunogenicity and functional T-cell data (Example 6). The format is cell-based, human. Here is the method:
The immunogenicity of MAG-003 was tested using protocols that mimic the manufacturing procedure for a pharmaceutical product.

Assay [3] deals with HLA-A*0201/Kb transgenic mice. The following applies: cited from earlier work.
The test system of assay [4] is advanced esophageal, stomach or lung cancer. The conditions noted are these: of 15 patients who completed one vaccination cycle; cited from earlier work.

Consider “KVLEHVVRV (listed as Homo sapiens) [MAG-003]”, for which the “binding affinity and stability towards HLA-A*0201 molecule” value in the assay with HLA-A*0201 molecule is “potent binding affinity and stability”. Also, the “binding to HLA-A*02:01” value with HLA-A*02:01 is on record as “very good binding”. The “lysis of target cells by the induced CTLs” value in assay [1] (Jia et al. 2010) is recorded as “lyse target cells in an HLA-A*0201-restricted fashion”. The “elicitation of peptide-specific CTLs” value was “elicits peptide-specific CTLs” in assay [1] (in vitro from HLA-A*0201-positive PBMCs, Jia et al. 2010) and “elicits peptide-specific CTLs” in assay [3] (HLA-A*0201/Kb transgenic mice, Jia et al. 2010). Also, the “killing of peptide loaded target cells by generated T cells” value in assay [2] was “able to kill peptide loaded target cells”. The “priming of peptide-specific T-cells” value in assay [2] (healthy donors, protocols mimicking manufacturing procedure) is “Priming of MAG-003-specific T-cells was observed”.
As to “p286-1Y2L9L: MAG-003 variant having 3 amino acid substitutions, printed as SEQ ID NO:3 (KVLEHVVRA; listed as Homo sapiens)”, the “binding affinity and stability towards HLA-A*0201 molecule” value with HLA-A*0201 molecule was “potent binding affinity and stability”. Besides, the “induction of specific CTLs that lyse target cancer cells” value is listed as “capability to induce specific CTLs” in assay [1] (PBMCs of healthy donors, Wu et al. 2011) and “capability to induce specific CTLs” in assay [3] (HLA-A2.1/Kb transgenic mice, Wu et al. 2011).
In the case of “p286-1Y2L: MAG-003 variant having 2 amino acid substitutions, printed as SEQ ID NO:2 (KVLEHVVRL; listed as Homo sapiens)”, in the assay with HLA-A*0201 molecule, the “binding affinity and stability towards HLA-A*0201 molecule” value was “potent binding affinity and stability”.

B1: MAGEA4 vaccine: MAGEA4 vaccine containing protein, given subcutaneously once every 2 weeks in six doses (Saito et al., 2014) (protein, UniProt P43358 1-317, looked up)
Melanoma-associated antigen 4: MSSEQKSQHCKPEEGVEAQEEALGLVGAQAPTTEEQEAAVSSSSPLVPGTLEEVPAAESAGPPQSPQGASALPTTISFTCWRQPNEGSSSQEEEGPSTSPDAESLFREALSNKVDELAHFLLRKYRAKELVTKAEMLERVIKNYKRCFPVIFGKASESLKMIFGIDVKEVDPASNTYTLVTCLGLSYDGLLGNNQIFPKTGLLIIVLGTIAMEGDSASEEEIWEELGVMGVYDGREHTVYGEPRKLLTQDWVQENYLEYRQVPGSNPARYEFLWGPRALAETSYVKVLEHVVRVNARVRIAYPSLREAALLEEEEGV
modifications: vaccine formulation
Regarding B1, in assay [4], the “patients with CD4 T-cell response” value was “three”, the “patients with CD8 T-cell response” value is on record as “six” and the “patients with MAGEA4-specific humoral response” value is given as “four”.

These data come from US12168044B2, “Peptides and combination of peptides for use in immunotherapy against non-small cell lung cancer and other cancers” (priority 2016, dated 2024).
